Source: article PMC6286387, “Physical and thermodynamic characterization of the rice gibberellin receptor/gibberellin/DELLA protein complex” (Scientific Reports, 2018)
Blank lines part the entries; values can stand above or below the molecule they belong to.

Experiments:
OsGID1 = target: T1, OsGID1 (Oryza sativa, UniProt Q6L545); assay: (method not stated for the binary complex); assay type: binding; settings: read-out: Kb (converted)
T1 construct: gene GID1; recombinant, purified
T1 sequence (Q6L545 1-354): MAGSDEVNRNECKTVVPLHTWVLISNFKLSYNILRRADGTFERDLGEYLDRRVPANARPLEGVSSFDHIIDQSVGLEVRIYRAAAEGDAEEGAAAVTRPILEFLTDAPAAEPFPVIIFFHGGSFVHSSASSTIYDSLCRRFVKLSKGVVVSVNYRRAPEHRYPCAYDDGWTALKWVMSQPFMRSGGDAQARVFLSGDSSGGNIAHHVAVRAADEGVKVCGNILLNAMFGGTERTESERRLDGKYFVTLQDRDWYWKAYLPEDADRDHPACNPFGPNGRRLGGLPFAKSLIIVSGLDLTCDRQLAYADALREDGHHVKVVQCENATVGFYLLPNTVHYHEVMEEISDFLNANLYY

[1] = target: T2, OsGID1 (rice gibberellin receptor GID1), Trx-free, used as the OsGID1/GA3 complex (rice (Oryza sativa), UniProt Q6L545 1-354); assay: ITC; 10 μl aliquants of 400 μM OsGID1/GA3 into 1.4482 ml of 50 μM SLR1 variant, 30 °C, 20 mM sodium phosphate (pH 7.5), 150 mM NaCl, 2.0 mM β-ME, 0.1 mM GA3; settings: both partners purified
T2 construct: Gibberellin receptor GID1 of rice (Oryza sativa); theoretical MW of the dimer printed as 79.2 kDa; The printed mass (39.6 kDa a monomer) fits the whole protein; source: recombinant, purified
T2 sequence (looked up): T1 sequence (Q6L545 1-354)

[2] = target: the molecule itself; assay: SEC; each protein chromatographed alone on Superdex 200 10/300 GL, 20 mM sodium phosphate (pH 7.5), 150 mM NaCl, 2 mM β-ME, 0.1 mM GA3; size against molecular weight standards
[3] = target: T3, Trx-OsGID1, used as the Trx-OsGID1/GA3 complex (rice (Oryza sativa), UniProt Q6L545 1-354); assay: SEC; purified Trx-OsGID1 and a Trx-SLR1 truncation mutant incubated together at 4 °C for 30 min with 10^-4 M GA3; Superdex 200 10/300 GL in 20 mM sodium phosphate (pH 7.5), 150 mM NaCl, 2 mM β-ME, 0.1 mM GA3; fractions on SDS-PAGE; settings: both partners purified
T3 construct: Gibberellin receptor GID1 of rice (Oryza sativa); GA3 (0.1 mM) was present in the gel filtration; also called Trx-GID1/GA3; source: recombinant, purified
T3 sequence (looked up): T1 sequence (Q6L545 1-354)

[4] = target: T2, OsGID1 (rice gibberellin receptor …); assay: ITC; 10 μl aliquants of 400 μM OsGID1/GA3 into 1.4482 ml of 50 μM SLR1 variant, 30 °C, 20 mM sodium phosphate (pH 7.5), 150 mM NaCl, 2.0 mM β-ME, 0.1 mM GA3; settings: both partners purified; remark: listed apart in the source
[5] = target: the molecule itself; assay: ITC; dilution series: 10 μl aliquants of 0.4 mM SLR1(M28-A112) into 1.4482 ml of buffer without OsGID1/GA3, 30 °C; dimer to monomers
[6] = target: T2, OsGID1 (rice gibberellin receptor …); assay: ITC; twenty 10 μl injections of 400 μM SLR1(M28-A112) into 50 μM OsGID1/GA3, 30 °C, 20 mM sodium phosphate (pH 7.5), 150 mM NaCl, 2.0 mM β-ME, 0.1 mM GA3; settings: both partners purified

B1: SLR1(M28-A112) ΔSPACE(G69-F83) (domain or fragment, rice (Oryza sativa), UniProt Q7G7J6 28-112, looked up)
chain: MAGAAGEEEDVDELLAALGYKVRSSDMADVAQKLEQLEMAMVSHLATDTVHYNPSDLSSWVESMLSELNA
notes: DELLA protein SLR1 of rice (Oryza sativa), residues M28-A112 with G69-F83 deleted; Named without Trx in the ITC experiments; removal of the tag is told in general in the methods; also called SLR(M28-A112)ΔSPACE; source: E. coli, purified (HiTrap Chelating, Superdex 200; thrombin, HiTrap Chelating, Superdex 75); not shown: Trx, N-terminal, cleaved; His6, N-terminal, cleaved
Ka [1]: 390000 M⁻¹

B2: SLR1(M1-A172) (domain or fragment, rice (Oryza sativa), UniProt Q7G7J6 1-172, looked up)
chain: MKREYQEAGGSSGGGSSADMGSCKDKVMAGAAGEEEDVDELLAALGYKVRSSDMADVAQKLEQLEMAMGMGGVSAPGAADDGFVSHLATDTVHYNPSDLSSWVESMLSELNAPLPPIPPAPPAARHASTSSTVTGGGGSGFFELPAAADSSSSTYALRPISLPVVATADPSA
notes: DELLA protein SLR1 of rice (Oryza sativa), residues M1-A172; Named without Trx in the ITC experiments; removal of the tag is told in general in the methods; also called SLR(M1-A172); source: E. coli, purified (HiTrap Chelating, Superdex 200; thrombin, HiTrap Chelating, Superdex 75); not shown: Trx, N-terminal, cleaved; His6, N-terminal, cleaved
Ka [1]: 2.8e+07 M⁻¹

B3: Trx-SLR1(M1-E104) (domain or fragment, rice (Oryza sativa), UniProt Q7G7J6 1-104, looked up)
chain: MKREYQEAGGSSGGGSSADMGSCKDKVMAGAAGEEEDVDELLAALGYKVRSSDMADVAQKLEQLEMAMGMGGVSAPGAADDGFVSHLATDTVHYNPSDLSSWVE
notes: DELLA protein SLR1 of rice (Oryza sativa), residues M1-E104; Thioredoxin-hexahistidine fusion from the vector pDEST-trx; source: E. coli, purified (HiTrap Chelating, Superdex 200); not shown: Trx, N-terminal, kept; His6, N-terminal, kept
stoichiometry N [2]: 2

B4: Trx-SLR1(M1-L110) (domain or fragment, rice (Oryza sativa), UniProt Q7G7J6 1-110, looked up)
chain: MKREYQEAGGSSGGGSSADMGSCKDKVMAGAAGEEEDVDELLAALGYKVRSSDMADVAQKLEQLEMAMGMGGVSAPGAADDGFVSHLATDTVHYNPSDLSSWVESMLSEL
notes: DELLA protein SLR1 of rice (Oryza sativa), residues M1-L110; Thioredoxin-hexahistidine fusion from the vector pDEST-trx; source: E. coli, purified (HiTrap Chelating, Superdex 200); not shown: Trx, N-terminal, kept; His6, N-terminal, kept
binding result [2]: binds
binding result [3]: binds

B5: SLR1(M1-H327) (domain or fragment, rice (Oryza sativa), UniProt Q7G7J6 1-327, looked up)
chain: MKREYQEAGGSSGGGSSADMGSCKDKVMAGAAGEEEDVDELLAALGYKVRSSDMADVAQKLEQLEMAMGMGGVSAPGAADDGFVSHLATDTVHYNPSDLSSWVESMLSELNAPLPPIPPAPPAARHASTSSTVTGGGGSGFFELPAAADSSSSTYALRPISLPVVATADPSAADSARDTKRMRTGGGSTSSSSSSSSSLGGGASRGSVVEAAPPATQGAAAANAPAVPVVVVDTQEAGIRLVHALLACAEAVQQENFAAAEALVKQIPTLAASQGGAMRKVAAYFGEALARRVYRFRPADSTLLDAAFADLLHAHFYESCPYLKFAH
notes: DELLA protein SLR1 of rice (Oryza sativa), residues M1-H327; Named without Trx in the ITC experiments; removal of the tag is told in general in the methods; also called SLR(M1-H327); source: E. coli, purified (HiTrap Chelating, Superdex 200; thrombin, HiTrap Chelating, Superdex 75); not shown: Trx, N-terminal, cleaved; His6, N-terminal, cleaved
Ka [1]: 2e+06 M⁻¹

B6: Trx-SLR1(M28-A112) (domain or fragment, rice (Oryza sativa), UniProt Q7G7J6 28-112, looked up)
chain: MAGAAGEEEDVDELLAALGYKVRSSDMADVAQKLEQLEMAMGMGGVSAPGAADDGFVSHLATDTVHYNPSDLSSWVESMLSELNA
notes: DELLA protein SLR1 of rice (Oryza sativa), residues M28-A112; theoretical monomeric MW of the fusion 29.3 kDa; Thioredoxin-hexahistidine fusion from the vector pDEST-trx; source: E. coli, purified (HiTrap Chelating, Superdex 200); not shown: Trx, N-terminal, kept; His6, N-terminal, kept
stoichiometry N [2]: 2
stoichiometry N [3]: 1

B7: SLR1(M28-A112), Trx-free (domain or fragment, rice (Oryza sativa), UniProt Q7G7J6 28-112, looked up)
chain: B6 chain
notes: DELLA protein SLR1 of rice (Oryza sativa), residues M28-A112; 13C/15N-labelled for the NMR spectra; also called SLR(M28-A112); source: E. coli, purified (HiTrap Chelating, Superdex 200; thrombin, HiTrap Chelating, Superdex 75); not shown: Trx, N-terminal, cleaved; His6, N-terminal, cleaved
Ka [4]: 1.1e+07 M⁻¹
Kd [5]: 1600 µM
dH [5]: -66 kcal/mol
Ka [6]: 1.2e+07 M⁻¹
dH [6]: -8.75 kcal/mol
stoichiometry N [6]: 0.88
Ka [1]: 2.9e+07 M⁻¹

The next lines start with the values.

Kd (OsGID1): 3.57 µM
Molecule: C=C1C[C@]23C[C@@]1(O)CC[C@H]2[C@@]12C=C[C@H](O)[C@@](C)(C(=O)O1)[C@H]2[C@@H]3C(=O)O [GA3]

Kd (OsGID1): 1.92 µM
Molecule: C=C1C[C@]23C[C@@]1(O)CC[C@H]2[C@@]12CC[C@H](O)[C@@](C)(C(=O)O1)[C@H]2[C@@H]3C(=O)O [GA1]

Kd (OsGID1): 0.238 µM
Molecule: C=C1C[C@]23C[C@H]1CC[C@H]2[C@@]12C=C[C@H](O)[C@@](C)(C(=O)O1)[C@H]2[C@@H]3C(=O)O [GA7]

Kd (OsGID1): 0.192 µM
Molecule: C=C1C[C@]23C[C@H]1CC[C@H]2[C@@]12CC[C@H](O)[C@@](C)(C(=O)O1)[C@H]2[C@@H]3C(=O)O [GA4]
